Consider one molecule from publication PMC8734478 (Science (New York, N.Y.), 2021).

Ends that are not written are not given here. * marks the point of attachment. Palmitoyl = CCCCCCCCCCCCCCCC(=O)*

In the experiment the target is human Hedgehog acyltransferase (HHAT) (human, UniProt Q5VTY9 1-493). In words: cryo-EM structure.
Chain of human Hedgehog acyltransferase (HHAT) (Q5VTY9 whole entry): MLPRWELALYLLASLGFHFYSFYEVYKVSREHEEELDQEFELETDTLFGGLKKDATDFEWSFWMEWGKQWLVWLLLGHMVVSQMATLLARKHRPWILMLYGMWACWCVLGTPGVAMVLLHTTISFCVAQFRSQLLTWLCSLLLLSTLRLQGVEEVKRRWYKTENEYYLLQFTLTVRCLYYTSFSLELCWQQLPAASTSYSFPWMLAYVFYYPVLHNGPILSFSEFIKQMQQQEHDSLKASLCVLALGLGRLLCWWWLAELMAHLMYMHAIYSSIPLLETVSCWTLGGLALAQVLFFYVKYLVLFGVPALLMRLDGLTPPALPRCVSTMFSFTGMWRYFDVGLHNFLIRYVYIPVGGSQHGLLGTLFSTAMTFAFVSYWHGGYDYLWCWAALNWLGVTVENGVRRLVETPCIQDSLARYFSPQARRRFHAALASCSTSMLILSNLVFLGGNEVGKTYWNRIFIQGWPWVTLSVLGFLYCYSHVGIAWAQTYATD

Take Palmitoyl-CGPGRGFGKRRH (peptide, UniProt Q15465 24-35, looked up): the binding result is “binds”.
